Source: patent US20240076386A1 (Pfizer, published 2024)

How the values were obtained:
[1] = biological target: T1, cynomolgus monkey E-selectin, cell-surface expressed (cynomolgus monkey, UniProt P16581 22-610 (human entry)); experiment: cell-based or functional assay
T1 chain: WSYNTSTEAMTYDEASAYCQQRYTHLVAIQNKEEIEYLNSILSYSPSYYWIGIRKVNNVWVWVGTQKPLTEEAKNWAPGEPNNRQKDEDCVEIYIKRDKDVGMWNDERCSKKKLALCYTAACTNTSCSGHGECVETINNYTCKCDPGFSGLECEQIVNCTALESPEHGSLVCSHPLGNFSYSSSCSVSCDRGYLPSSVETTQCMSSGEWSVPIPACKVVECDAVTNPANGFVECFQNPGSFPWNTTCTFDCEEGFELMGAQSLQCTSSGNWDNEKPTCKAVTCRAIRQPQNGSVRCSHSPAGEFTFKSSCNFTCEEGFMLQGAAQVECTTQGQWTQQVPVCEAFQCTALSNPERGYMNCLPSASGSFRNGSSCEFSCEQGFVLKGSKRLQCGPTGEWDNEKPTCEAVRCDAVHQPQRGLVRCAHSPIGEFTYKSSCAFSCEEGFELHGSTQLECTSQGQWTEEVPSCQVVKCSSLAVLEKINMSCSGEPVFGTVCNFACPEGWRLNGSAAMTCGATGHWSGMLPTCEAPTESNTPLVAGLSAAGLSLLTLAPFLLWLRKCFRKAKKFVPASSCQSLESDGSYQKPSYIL

[2] = biological target: T2, human E-selectin, cell-surface expressed (human, UniProt P16581 22-610); experiment: cell-based or functional assay
T2 sequence: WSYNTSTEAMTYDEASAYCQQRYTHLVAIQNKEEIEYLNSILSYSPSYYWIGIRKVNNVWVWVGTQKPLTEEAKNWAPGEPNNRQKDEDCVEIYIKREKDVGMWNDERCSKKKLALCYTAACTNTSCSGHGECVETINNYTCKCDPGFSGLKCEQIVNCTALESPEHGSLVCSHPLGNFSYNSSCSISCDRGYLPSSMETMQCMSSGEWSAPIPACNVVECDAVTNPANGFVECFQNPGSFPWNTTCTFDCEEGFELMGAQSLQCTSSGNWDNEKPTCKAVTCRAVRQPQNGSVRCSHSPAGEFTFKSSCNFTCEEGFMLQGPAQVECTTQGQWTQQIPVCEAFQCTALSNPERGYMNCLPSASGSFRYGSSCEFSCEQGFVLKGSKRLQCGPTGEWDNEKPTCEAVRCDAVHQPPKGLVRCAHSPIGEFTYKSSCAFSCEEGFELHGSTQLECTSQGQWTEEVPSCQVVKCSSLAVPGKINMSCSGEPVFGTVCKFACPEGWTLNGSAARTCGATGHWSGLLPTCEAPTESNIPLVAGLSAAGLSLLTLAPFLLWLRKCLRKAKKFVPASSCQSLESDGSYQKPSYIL

[3] = biological target: T3, recombinant histidine-tagged human E-selectin (Sino Biologicals; 13025-H08H) (human, UniProt P16581 22-556); experiment: cell-based or functional assay
T3 sequence (looked up): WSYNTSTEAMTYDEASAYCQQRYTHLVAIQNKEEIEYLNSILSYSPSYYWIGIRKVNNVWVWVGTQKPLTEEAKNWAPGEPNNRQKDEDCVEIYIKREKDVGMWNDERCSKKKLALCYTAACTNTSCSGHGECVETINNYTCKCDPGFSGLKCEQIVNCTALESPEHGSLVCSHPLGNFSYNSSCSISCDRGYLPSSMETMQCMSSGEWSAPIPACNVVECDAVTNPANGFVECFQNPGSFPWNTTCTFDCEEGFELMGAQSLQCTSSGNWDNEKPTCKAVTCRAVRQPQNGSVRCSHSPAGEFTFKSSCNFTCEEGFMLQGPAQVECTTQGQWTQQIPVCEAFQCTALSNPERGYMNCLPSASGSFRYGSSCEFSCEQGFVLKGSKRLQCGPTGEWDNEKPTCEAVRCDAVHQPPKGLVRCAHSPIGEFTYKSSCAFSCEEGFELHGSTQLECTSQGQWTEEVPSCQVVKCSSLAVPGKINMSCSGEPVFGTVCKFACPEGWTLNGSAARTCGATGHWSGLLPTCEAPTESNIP

[4] = biological target: T1, cynomolgus monkey E-selectin, …; experiment: cell-based or functional assay
[5] = biological target: T2, human E-selectin, cell-surface expressed; experiment: cell-based or functional assay; remark: listed apart in the source
[6] = biological target: T3, recombinant histidine-tagged human …; experiment: cell-based or functional assay; remark: listed apart in the source
[7] = biological target: T4, human P-selectin expressed on CHO cells (human, UniProt P16109 42-830); experiment: flow cytometry, CHO human P-selectin cells
T4 construct: whole, on cells; also called CHO-human P-selectin cells; CHO-P-selectin cells
T4 sequence (looked up): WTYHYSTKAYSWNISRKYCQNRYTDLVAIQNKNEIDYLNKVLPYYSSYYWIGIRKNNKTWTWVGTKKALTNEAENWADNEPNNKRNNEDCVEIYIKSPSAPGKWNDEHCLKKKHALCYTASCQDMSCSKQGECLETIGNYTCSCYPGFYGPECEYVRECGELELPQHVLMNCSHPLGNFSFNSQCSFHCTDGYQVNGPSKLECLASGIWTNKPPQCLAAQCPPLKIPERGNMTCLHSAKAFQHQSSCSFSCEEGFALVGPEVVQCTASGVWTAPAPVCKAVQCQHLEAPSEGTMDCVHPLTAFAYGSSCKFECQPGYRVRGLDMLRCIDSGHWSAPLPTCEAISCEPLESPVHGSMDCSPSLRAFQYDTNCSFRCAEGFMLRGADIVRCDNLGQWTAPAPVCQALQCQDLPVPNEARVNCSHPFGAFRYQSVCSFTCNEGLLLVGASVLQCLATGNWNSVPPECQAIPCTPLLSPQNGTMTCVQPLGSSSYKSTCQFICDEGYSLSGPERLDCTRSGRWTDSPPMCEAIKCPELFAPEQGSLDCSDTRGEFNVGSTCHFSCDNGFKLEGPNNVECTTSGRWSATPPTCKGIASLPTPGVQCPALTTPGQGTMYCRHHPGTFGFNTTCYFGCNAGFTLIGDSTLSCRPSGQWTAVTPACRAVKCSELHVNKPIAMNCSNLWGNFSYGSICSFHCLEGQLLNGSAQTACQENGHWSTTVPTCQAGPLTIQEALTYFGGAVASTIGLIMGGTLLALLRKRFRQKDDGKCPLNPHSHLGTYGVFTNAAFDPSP

- HL-60 adhesion under physiological flow to cells expressing cynomolgus monkey E-selectin, IC50 [1]: 4.34 nM
- HL-60 adhesion under physiological flow to human CHO-E-selectin cells, IC50 [2]: 4.41 nM
- HL-60 cellular adhesion under physiological flow to purified soluble human E-selectin protein, IC50 [3]: 15.3 nM
- adhesion of SCD patient blood cells under physiological flow to recombinant E-selectin, IC50 (one donor) [3]: 6.17 nM
- adhesion of SCD patient blood cells under physiological flow to recombinant E-selectin, IC50 (other donor) [3]: 18.7 nM
- Flow adhesion neutralization of HL-60 cells, CHO cells, cynomolgus monkey E-selectin, IC50 [4]: 4.32 to 4.35 nM
- Neutralization of Human Neutrophils, CHO cells, cynomolgus E-selectin, flow, IC50 [4]: 9.45 to 16.3 nM
- Static adhesion neutralization of HL-60 cells, CHO cells, cynomolgus monkey E-selectin, IC50 [4]: 3.84 nM
- Flow adhesion neutralization of HL-60 cells, CHO cells, human E-selectin, IC50 [5]: 4.25 to 4.56 nM
- Neutralization of Human Neutrophils, CHO cells, human E-selectin, flow, IC50 [5]: 2.87 to 4.65 nM
- Static adhesion neutralization of HL-60 cells, CHO cells, human E-selectin, IC50 [5]: 3.36 to 4.7 nM
- Flow adhesion neutralization of HL-60 cells, soluble recombinant human E-selectin, IC50 [6]: 13.3 to 15.9 nM
- Neutralization of SCD patient cells, soluble human recombinant protein, flow, IC50 (mean) [6]: 12.4 nM
- binding result [7]: no binding
B1: optimized anti-E-selectin antibody 1444 (antibody, human IgG1, kappa, V domains shown)
VH: EVQLVESGGGLVQPGGSLRLSCAASGYAIRSAYMHWVRQAPGKGLEWVARIDPANGNTIYVDSVTGRFTISADNAKNSAYLQMNSLRAEDTAVYYCAMDLYSTSEYWGQGTLVTVSS
VL: DIQMTQSPSSLSASVGDRVTITCKTSQNIERYLNWYQQKPGKAPKLLIYAASSLQSGVPSRFSGSGSGTDFTLTISSLQPEDFATYFCLQDNAWPLTFGQGTKVEIKR
notes: effector-null human IgG1, kappa
